Source: patent US20190338048A1
Read-outs that look alike come from different tables or passages of the source. Blank lines part the entries; values can stand above or below the substance they belong to.

Assays:
[1] = target: Pertuzumab kappa light chain Q124K_L135A_T178R; assay: LCCA
[2] = target: Pertuzumab kappa light chain Q124R_L135A_Q160K_T178R; assay: LCCA
[3] = target: CAT-2200 lambda light chain T116F_K129T_V133D_S176F; assay: LCCA, SPR tag read-out
[4] = target: Pertuzumab kappa light chain Q124R_L135A_T178R; assay: LCCA, SPR tag read-out
[5] = target: Pertuzumab kappa light chain Q124E_V133D; assay: LCCA, SPR
[6] = target: CAT-2200 lambda light chain E124Q_T131R; assay: LCCA, SPR
[7] = target: CAT-2200 lambda light chain E124Q_T131R; assay: LCCA, SPR tag read-out
[8] = target: Pertuzumab kappa light chain Q124E_V133D_L135W_T180D; assay: LCCA, SPR tag read-out
[9] = target: Pertuzumab kappa light chain Q124E_V133D_L135W; assay: LCCA, SPR tag read-out
[10] = target: Pertuzumab kappa light chain Q124E_V133D_T180D; assay: LCCA, SPR tag read-out
[11] = target: CAT-2200 lambda light chain E124Q_T131R; assay: LCCA, SPR tag read-out; remark: listed apart in the source
[12] = target: CAT-2200 lambda light chain S122D_E124Q_T131R; assay: LCCA, SPR tag read-out
[13] = target: Pertuzumab kappa light chain S121K_Q124E_V133D_T180D; assay: LCCA, SPR tag read-out
[14] = target: Pertuzumab kappa light chain S121K_Q124E_V133D; assay: LCCA, SPR tag read-out
[15] = target: CAT-2200 lambda light chain Y178K; assay: LCCA
[16] = target: Pertuzumab kappa light chain Q124E_V133D_S176D_T178E; assay: LCCA
[17] = target: Pertuzumab kappa light chain Q124E_V133D_T178E; assay: LCCA
[18] = target: Pertuzumab kappa light chain Q124E_V133D_S176D_T178E; assay: LCCA; remark: listed apart in the source
[19] = target: Pertuzumab kappa light chain Q124E_V133D_T178E; assay: LCCA; remark: listed apart in the source
[20] = target: Pertuzumab kappa light chain Q124E_V133D_S176D_T178D; assay: LCCA, SPR tag read-out
[21] = target: Pertuzumab kappa light chain Q124E_V133D_S176D_T178E; assay: LCCA, SPR tag read-out
[22] = target: Pertuzumab kappa light chain S121K_S176E_T178E; assay: LCCA
[23] = target: Pertuzumab kappa light chain S121K_S131D_V133G_T178F; assay: LCCA, SPR tag read-out
[24] = target: Pertuzumab kappa light chain S121K_V133I_S176D_T178E; assay: LCCA, SPR tag read-out
[25] = target: CAT-2200 lambda light chain S122D_E124Q_T131R; assay: LCCA, SPR tag read-out; remark: listed apart in the source
[26] = target: Pertuzumab kappa light chain V133I_L135A_S176D_T178E; assay: LCCA, SPR tag read-out

H2L2:H2L1 median scalar value [1]: -0.51 ln
H2L2:H2L1 median scalar value [2]: -0.29 ln
H2L2:H2L1 normalized median ratio [3]: 27%
H2L2:H2L1 median scalar value [4]: 0.99 ln(ratio)
H2L2:H2L1 normalized median ratio [4]: 73%
Substance: Pertuzumab Fab heavy chain L143E_K145T_Q179E_V190F

H2L2:H2L1 normalized median ratio [5]: 96%
H2L2:H2L1 normalized median scalar value ln(r1/f1) [5]: 3.06
H2L2:H2L1 normalized median ratio [6]: 4%
H2L2:H2L1 normalized median ratio [7]: 15%
H2L2:H2L1 median scalar value [8]: 0.87 ln(ratio)
H2L2:H2L1 median scalar value [9]: 2.13 ln(ratio)
H2L2:H2L1 normalized median ratio [9]: 89%
H2L2:H2L1 median scalar value [10]: 1.72 ln(ratio)
H2L2:H2L1 normalized median ratio [10]: 85%
H2L2:H2L1 normalized median ratio [11]: 11%
Substance: Pertuzumab Fab heavy chain L143R

H2L2:H2L1 normalized median ratio [12]: 26%
H2L2:H2L1 median scalar value [13]: -0.2 ln(ratio)
H2L2:H2L1 median scalar value [14]: 1.08 ln(ratio)
H2L2:H2L1 normalized median ratio [14]: 74%
Substance: Pertuzumab Fab heavy chain L143R_K228D

H2L2:H2L1 normalized median ratio [15]: 22%
H2L2:H2L1 median scalar value [16]: -0.02 ln
H2L2:H2L1 median scalar value [17]: 1.31 ln
H2L2:H2L1 median scalar value [18]: 1.21 ln
H2L2:H2L1 median scalar value [19]: 1.45 ln
H2L2:H2L1 median scalar value [20]: 0.02 ln(ratio)
H2L2:H2L1 median scalar value [21]: 1.21 ln(ratio)
Substance: Pertuzumab Fab heavy chain L143R_S188K

H2L2:H2L1 median scalar value [22]: 2.83 ln
H2L2:H2L1 normalized median ratio [12]: 53%
H2L2:H2L1 median scalar value [23]: -0.08 ln(ratio)
H2L2:H2L1 normalized median ratio [23]: 47%
H2L2:H2L1 median scalar value [24]: 1.74 ln(ratio)
H2L2:H2L1 normalized median ratio [24]: 85%
H2L2:H2L1 normalized median ratio [25]: 15%
Substance: Pertuzumab Fab heavy chain S188K_K228D

H2L2:H2L1 median scalar value [26]: 0.88 ln(ratio)
Substance: Pertuzumab Fab heavy chain S188K_V190F
